The values that follow come from patent publication EP1104310B1.

Bounds are passed on as bounds.

Holding throughout (experiment): cell-based or functional assay
For test [1], the target named is CCR1 expressed on HOS-CD4 cells (UniProt P32246).
Test [2] concerns the target CCR3 expressed on HOS-CD4 cells (UniProt P51677).
Test [3] addresses CCR4 expressed on HOS-CD4 cells (UniProt P51679).
Test [4] concerns the target CCR5 expressed on HOS-CD4 cells (UniProt P51681).
For test [5], the target named is CXCR4 expressed on HOS-CD4 cells (UniProt P61073).
Chain of UniProt P61073 (P61073 whole entry): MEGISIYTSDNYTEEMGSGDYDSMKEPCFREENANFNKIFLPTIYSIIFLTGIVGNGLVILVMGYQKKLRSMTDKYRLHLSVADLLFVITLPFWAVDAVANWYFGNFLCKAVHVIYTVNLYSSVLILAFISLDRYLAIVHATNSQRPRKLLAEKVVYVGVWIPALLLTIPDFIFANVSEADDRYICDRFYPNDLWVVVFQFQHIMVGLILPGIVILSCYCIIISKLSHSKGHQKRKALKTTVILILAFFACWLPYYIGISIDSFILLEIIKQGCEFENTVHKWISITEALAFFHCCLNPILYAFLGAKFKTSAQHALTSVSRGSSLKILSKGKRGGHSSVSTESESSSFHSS

Chain of UniProt P51679 (P51679 whole entry): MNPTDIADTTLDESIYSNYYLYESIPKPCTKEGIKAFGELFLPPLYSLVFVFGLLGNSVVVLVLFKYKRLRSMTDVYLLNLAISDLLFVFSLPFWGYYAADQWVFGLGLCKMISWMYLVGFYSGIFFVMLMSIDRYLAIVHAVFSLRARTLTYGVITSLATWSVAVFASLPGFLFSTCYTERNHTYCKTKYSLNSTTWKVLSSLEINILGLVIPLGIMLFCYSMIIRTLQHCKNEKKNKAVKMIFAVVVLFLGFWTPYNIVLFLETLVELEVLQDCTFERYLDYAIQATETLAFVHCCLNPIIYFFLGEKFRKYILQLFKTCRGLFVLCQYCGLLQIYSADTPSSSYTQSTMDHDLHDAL
Chain of UniProt P32246 (P32246 whole entry): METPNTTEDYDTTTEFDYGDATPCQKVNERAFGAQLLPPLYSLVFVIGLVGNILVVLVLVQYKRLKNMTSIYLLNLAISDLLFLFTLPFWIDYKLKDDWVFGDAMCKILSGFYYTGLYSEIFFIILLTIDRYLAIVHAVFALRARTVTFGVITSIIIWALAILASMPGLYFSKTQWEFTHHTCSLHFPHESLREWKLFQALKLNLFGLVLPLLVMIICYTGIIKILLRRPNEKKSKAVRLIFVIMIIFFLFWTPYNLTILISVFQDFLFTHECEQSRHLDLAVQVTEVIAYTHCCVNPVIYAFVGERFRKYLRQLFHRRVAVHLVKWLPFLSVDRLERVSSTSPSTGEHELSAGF
Chain of UniProt P51681 (P51681 whole entry): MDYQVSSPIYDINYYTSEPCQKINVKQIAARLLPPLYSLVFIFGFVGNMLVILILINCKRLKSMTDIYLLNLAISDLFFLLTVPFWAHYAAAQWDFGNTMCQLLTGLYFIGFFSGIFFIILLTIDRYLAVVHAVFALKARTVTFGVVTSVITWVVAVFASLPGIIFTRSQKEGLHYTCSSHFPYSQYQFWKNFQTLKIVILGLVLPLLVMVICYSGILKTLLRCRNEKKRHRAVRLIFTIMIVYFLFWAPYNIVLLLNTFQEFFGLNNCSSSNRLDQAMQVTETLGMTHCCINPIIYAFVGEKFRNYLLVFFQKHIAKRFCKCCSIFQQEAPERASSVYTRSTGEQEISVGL
Chain of UniProt P51677 (P51677 whole entry): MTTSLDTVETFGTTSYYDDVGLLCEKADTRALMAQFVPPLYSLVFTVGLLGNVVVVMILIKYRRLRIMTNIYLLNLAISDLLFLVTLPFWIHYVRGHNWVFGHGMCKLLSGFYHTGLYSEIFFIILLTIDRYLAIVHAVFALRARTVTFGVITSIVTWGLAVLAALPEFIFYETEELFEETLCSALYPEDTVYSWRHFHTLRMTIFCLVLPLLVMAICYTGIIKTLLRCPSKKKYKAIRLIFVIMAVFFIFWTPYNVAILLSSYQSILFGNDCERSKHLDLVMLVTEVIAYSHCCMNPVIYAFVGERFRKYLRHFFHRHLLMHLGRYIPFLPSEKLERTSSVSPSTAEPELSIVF

“HIV-1 AD8 envelope, expressed on pseudovirus”: the Infectivity Titer in HOS-CD4 Cells Expressing CCR1 in test [1] is < 4 titer (1:n). Besides, the Infectivity Titer in HOS-CD4 Cells Expressing CCR3 in test [2] was < 4 titer (1:n). In test [3], the Infectivity Titer in HOS-CD4 Cells Expressing CCR4 is < 4 titer (1:n). Also, the Infectivity Titer in HOS-CD4 Cells Expressing CCR5 in test [4] is 256 titer (1:n). Also, in test [5], the Infectivity Titer in HOS-CD4 Cells Expressing CXCR4 is < 4 titer (1:n).
Take “HIV-1 NL4-3 envelope, expressed on pseudovirus”: the Infectivity Titer in HOS-CD4 Cells Expressing CCR1 in test [1] was < 4 titer (1:n). Also, the Infectivity Titer in HOS-CD4 Cells Expressing CCR3 in test [2] was < 4 titer (1:n). For the same substance, in test [3], the Infectivity Titer in HOS-CD4 Cells Expressing CCR4 is < 4 titer (1:n). For the same substance, the Infectivity Titer in HOS-CD4 Cells Expressing CCR5 in test [4] was 32 titer (1:n). Further, the Infectivity Titer in HOS-CD4 Cells Expressing CXCR4 in test [5] was > 256 titer (1:n).
